In patent publication US20230348858, “COMPOSITIONS AND METHODS FOR PROMOTING PROLIFERATION IN CARDIOMYOCYTES” (THE TRUSTEES OF INDIANA UNIVERSITY, published 2023):

Target: Brg1 helicase domain D1D2 (Mus musculus, UniProt Q3TKT4 SEQ:1-431)
Test: EMSA; 10 mM HEPES-KOH pH 7.3, 10 mM NaCl, 1 mM MgCl2, 1 mM DTT, tRNA carrier, room temp
Details: tags: MBP fusion; label: 5'-biotin
Procedure: Biotin-labelled RNA control probe: [0158] Biotin—5′[…]-3′ (SEQ ID NO 25); and Biotin-labelled RNA probe with m⁶A: [0159] Biotin—5′[…](m⁶A)[…]-3′ (SEQ ID NO 26); were synthesized by Gene Link (Orlando, Fla.). EMSA was performed by using the LightShift™ Chemiluminescent RNA EMSA Kit (Cat. 20158, Thermo Scientific). The labelled probe was incubated with appropriate amounts of recombinant proteins in 10 μl in the 1× binding buffer (10 mM HEPES-KOH, pH 7.3, 10 mM NaCl, 1 mM MgCl2, 1 mM DTT) with 5 μg tRNA carrier at room temperature for 30 min. The reactions were then loaded onto 1% 0.5× TBE agarose gel and transferred to Bright Star Plus positive charged membrane. The biotin-labelled probes were detected and quantified subsequently using Odyssey Infrared Imaging System. The shifted signals were quantified and plotted against amount of the MBP-D1D2 protein ((SEQ ID NO 27) coupled to (SEQ ID NO 2)) with GraphPad Prism (GraphPad). The software facilitates the fitting of nonlinear regression model and calculation of Kd values based on the fitting curve. The errors and r² values were also generated from the fitting curve.

Chain of Brg1 helicase domain D1D2 (Q3TKT4 774-1204): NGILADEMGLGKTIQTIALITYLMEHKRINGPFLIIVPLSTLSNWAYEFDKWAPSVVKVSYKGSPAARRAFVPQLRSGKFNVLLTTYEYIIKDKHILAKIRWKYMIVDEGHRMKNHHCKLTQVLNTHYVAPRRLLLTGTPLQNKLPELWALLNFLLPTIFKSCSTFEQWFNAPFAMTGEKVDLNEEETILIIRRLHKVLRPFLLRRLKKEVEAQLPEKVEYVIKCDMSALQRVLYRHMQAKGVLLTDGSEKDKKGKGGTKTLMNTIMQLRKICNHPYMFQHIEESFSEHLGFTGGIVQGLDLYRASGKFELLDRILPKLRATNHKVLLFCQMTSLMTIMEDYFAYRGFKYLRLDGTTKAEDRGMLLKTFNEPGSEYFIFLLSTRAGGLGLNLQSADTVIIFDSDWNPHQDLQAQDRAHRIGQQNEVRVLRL

## UCGUCAUGGCUGAACUGCGGUUGUACACGCUGGUGCAGAGAGAUCGCAU (ssRNA, m6A at A25 (M2 adenosine)) [Bmp10 RNA probe with m6A (49 nt)]
  Kd: 176 nM
